# Data reported in US20060024786A1, “WASP and N-WASP constructs and methods of expressing such constructs” (Cytokinetics, Inc., priority 2004, published 2006).
# Entries after “also recorded” stand apart in the source; their conditions may differ.
# Assays:
# full length human WASP [1] = molecular target: T1, full length human WASP (Homo sapiens, UniProt P42768); test: Pyrene-actin polymerization assay: activation of full length WASP by upstream regulators; format: biochemical; settings: for activation of FL WASP: Arp2/3 complex 4.0 nM, actin 3.5 μM
# T1 construct: ProtA (part of TAP tag, behind the tev site) (C, cleaved yes); made in house; host or cells: human 293 cells (Freestyle 293 expression system)
# T1 sequence (P42768 whole entry, added parts left off): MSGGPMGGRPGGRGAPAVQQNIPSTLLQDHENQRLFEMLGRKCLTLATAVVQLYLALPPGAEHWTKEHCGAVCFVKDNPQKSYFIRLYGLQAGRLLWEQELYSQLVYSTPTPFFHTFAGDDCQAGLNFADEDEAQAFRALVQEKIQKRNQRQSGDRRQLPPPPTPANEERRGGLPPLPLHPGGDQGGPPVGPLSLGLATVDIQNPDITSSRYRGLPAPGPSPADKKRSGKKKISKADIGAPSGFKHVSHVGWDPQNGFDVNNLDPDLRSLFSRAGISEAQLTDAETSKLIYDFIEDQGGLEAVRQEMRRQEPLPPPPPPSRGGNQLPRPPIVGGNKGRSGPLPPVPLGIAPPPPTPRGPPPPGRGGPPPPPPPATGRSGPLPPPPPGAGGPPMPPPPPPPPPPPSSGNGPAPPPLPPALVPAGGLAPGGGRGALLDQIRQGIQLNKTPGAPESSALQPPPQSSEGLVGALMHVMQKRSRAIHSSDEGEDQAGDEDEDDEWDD
# Experimental: (§1) Samples containing candidate agents (individually or as mixtures) are placed into wells on a multi-well plate. Mix 1 is added to each of the wells and mixed with the candidate agent. A sample of Mix 2 is then introduced into each well and the resulting mixture thoroughly mixed. Typically, Mix 1 and Mix 2 are mixed in 1:1 ratio (e.g., 50 μl each of Mix 1 and Mix 2).
# (§2) Actin polymerization is measured as a function of time by exciting pyrene at 365 nm and by detecting an increase in fluorescence emission at 407 nm. The change in fluorescence over time is utilized to determine a fluorescence parameter (e.g., maximal velocity, time to half maximal fluorescence intensity or area under the curve of a plot of fluorescence versus time).
# Full length WASP was prepared as described in Example 1. This protein was then used as a substitute GST-105WASP in methods that were otherwise identical to the methods described in Example 7.
# (§3) Full length human WASP and N-WASP were TAP-tagged (Rigaut, et al. (1999) Nat. Biotechnology 17:1030, which is incorporated herein by reference in its entirety for all purposes) at the C-terminus (see, also Examples 1 and 2). The recombinant WASP and N-WASP were expressed in human 293 cells and then purified using a TAP-tag protocol as described in Example 5.
# The Arp2/3 complex in these experiments was 4.0 nM and the actin concentration 3.5 μM.
# The effect of PIP2on the ability of upstream regulators to regulate FL WASP was evaluated in a fifth set of experiments. The results are depicted in graphical format in FIG. 9.
# full length human WASP [2] = molecular target: T1, full length human WASP; test: as above; format: biochemical; settings: total concentration of Arp2/3 complex in the assay 4.2 nM
# full length human N-WASP = molecular target: T2, full length human N-WASP (Homo sapiens, UniProt O00401); test: Pyrene-actin polymerization assay: activation of full length N-WASP by upstream regulators; format: biochemical; settings: for Barbed ends: total concentration of Arp2/3 complex in the assay 4.2 nM; for activation of FL N-WASP: Arp2/3 complex 4.0 nM, actin 3.5 μM
# T2 construct: ProtA (part of TAP tag, behind the tev site) (C, cleaved yes); made in house; host or cells: human 293 cells; cDNA amplified from HeLa total RNA
# T2 sequence (O00401 with tags, fused parts or gaps Y76H/A201G/F223S/S242L/D248E/S252L/N296S/A333E): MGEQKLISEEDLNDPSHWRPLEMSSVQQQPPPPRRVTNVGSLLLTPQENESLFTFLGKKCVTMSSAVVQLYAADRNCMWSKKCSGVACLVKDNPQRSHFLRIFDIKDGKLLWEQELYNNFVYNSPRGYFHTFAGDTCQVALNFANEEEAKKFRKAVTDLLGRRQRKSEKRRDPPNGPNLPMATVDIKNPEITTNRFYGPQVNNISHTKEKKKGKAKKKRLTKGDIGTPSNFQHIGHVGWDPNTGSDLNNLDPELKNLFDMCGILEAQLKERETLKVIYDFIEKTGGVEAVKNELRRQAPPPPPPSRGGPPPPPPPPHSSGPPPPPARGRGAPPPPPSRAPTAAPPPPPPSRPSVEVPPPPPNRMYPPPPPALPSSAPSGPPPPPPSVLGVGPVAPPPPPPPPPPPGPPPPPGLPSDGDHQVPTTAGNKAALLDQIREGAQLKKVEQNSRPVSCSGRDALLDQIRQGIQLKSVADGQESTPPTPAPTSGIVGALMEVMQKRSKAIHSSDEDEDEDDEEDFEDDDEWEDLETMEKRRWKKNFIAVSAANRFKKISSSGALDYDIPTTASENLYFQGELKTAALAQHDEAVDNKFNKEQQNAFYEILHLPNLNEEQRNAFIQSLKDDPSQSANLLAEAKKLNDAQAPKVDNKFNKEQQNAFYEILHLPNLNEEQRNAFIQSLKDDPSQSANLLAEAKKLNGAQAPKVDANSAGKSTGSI
# Experimental: as §1, §2
# Full length N-WASP was prepared as described in Example 2. This protein was then used as a substitute GST-105 WASP in methods that were otherwise identical to the methods described in Example 7.
# as §3
# Arp2/3 and actin concentrations were as described for the third experiment.
# Another set of experiments similar to the fifth set were conducted using FL N-WASP.
# [3] = Solubility of purified full-length protein; format: physicochemical; settings: expressed in 293 cells, TAP-tag purification
# Arp2/3 complex = molecular target: T3, Arp2/3 complex; test: Arp2/3-mediated actin polymerization stimulated by WASP/N-WASP proteins; format: biochemical, human
# T3 construct: prepared from an Arp2/3 source such as human platelets; from tissue; host or cells: cell extract, e.g. human platelets
# Experimental: as §1, §2
# In a second set of experiments, the ability of various truncated forms of WASP were compared to the activity of the full-length protein. The polymerization assays were conducted in the presence of 500 nM Cdc42, 2.5 nm purified Arp2/3 complex and 3.5 μM actin. FL-WASP, 105 WASP and the VCA (see Example 7) domain were tested. The results of these trials were plotted to obtain EC50 values. The results are provided in FIG. 6 and in the chart below.
# [4] = 500 nM Cdc42, 2.5 nm Arp2/3 complex, 3.5 μM actin, from EC50 values
substance,measurement,setting,value
"Cdc42: Rho-family GTPase, upstream regulator; GST-tagged Cdc42 GTP with G12 mutated to V, SEQ ID NO:26",activation of FL WASP,full length human WASP [1]; FIG. 7,can fully activate FL WASP; also recorded: more effective on WASP-stimulated actin nucleation by Arp2/3 complex than on N-WASP-stimulated actin nucleation
same,acceleration of actin polymerization by activator,"full length human WASP [1]; FL-WASP plus activator versus FL-WASP alone, FIG. 5",13 fold
same,Barbed ends,full length human WASP [2],3.8 nM
same,acceleration of actin polymerization by activator,"full length human N-WASP; N-WASP plus activator versus N-WASP alone, FIG. 5",13 fold
same,Barbed ends,full length human N-WASP; N-WASP,1.3 nM
"FL-WASP: full-length Wiskott-Aldrich syndrome protein, SEQ ID NO:2; expressed TAP-tagged in human 293 cells",solubility of purified protein,[3],completely soluble
same,activity relative to 105 WASP,Arp2/3 complex; [4],approximately 20 times
same,potency relative to the VCA/WA domain,Arp2/3 complex; [4],more than 70 times
same,stimulation of actin polymerization by the protein by itself,"Arp2/3 complex; without upstream regulators, FIG. 5",only weakly stimulate actin polymerization
"Nck2: upstream regulator; GST-tagged NCK2, SEQ ID NO:40",dose dependence of barbed end concentration / effect at higher concentrations,"full length human WASP [1]; FL WASP, FIG. 7",bell shaped dependence; also recorded: inhibited
same,Barbed ends % of max.,"full length human WASP [1]; WASP, after subtracting baseline (WASP without activators)",50%
same,Barbed ends,full length human WASP [2],2.6 nM
same,activation of FL N-WASP,full length human N-WASP; FIG. 8,only activators tested that can stimulate production of maximal concentration of barbed ends
same,dose dependence of barbed end concentration / effect at higher concentrations,"full length human N-WASP; FL N-WASP, FIG. 8",bell shaped dose dependence; also recorded: inhibited
same,Barbed ends % of max.,"full length human N-WASP; N-WASP, after subtracting baseline (without activators)",78%
same,Barbed ends,full length human N-WASP; N-WASP,3.5 nM
same,comparison as N-WASP activator,"full length human N-WASP; Rac1 versus Cdc42 in the absence of PIP2 vesicles, Nck2 on N-WASP versus WASP, FIG. 8",significantly better activator of N-WASP than WASP
"RhoA: GTPase; GST-tagged RhoA GTP, SEQ ID NO:30",activation of FL WASP,full length human WASP [1]; FIG. 7,could not activate
same,activation of FL N-WASP,full length human N-WASP; FIG. 8,could not activate
"RhoC: GTPase; GST-tagged RhoC GTP with G14 mutated to V, SEQ ID NO:28",activation of FL WASP,full length human WASP [1]; FIG. 7,could not activate
same,activation of FL N-WASP,full length human N-WASP; FIG. 8,could not activate
"phosphatidylinositol-4,5-bisphosphate [PIP2, reference compound]",effect of PIP2 on FL WASP,"full length human WASP [1]; in the absence of small GTPases or Nck, FIG. 9","minimal, if any, effect"
